Measurements: patent US20200262877A1, “ION CHANNEL-BINDING PEPTIDES AND METHODS OF USE THEREOF” (priority 2017, published 2020)

Assays:
α4β2 = molecular target: T1, α4β2 (Homo sapiens, UniProt P17787+P43681); assay: Ion channel panel (IonWorks Barracuda): α4β2; assay type: cell-based; conditions: 100% = no change, <100% = inhibition
T1 construct: host or cells: HEK293 or CHO
Outline: (§1)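 Transfected HEK293 or CHO cells were exposed for at least 5 min to peptides at 200 nM and 20 μM final, tested in duplicate, in HEPES-buffered physiological saline. Activation was taken as peptide-plus-agonist current over control current ×100, and inhibition as 1 minus that ratio ×100. Each channel's control was its own reference compound.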

GABA = assay: Ion channel panel (IonWorks Barracuda): GABA; assay type: cell-based; conditions: 100% = no change, <100% = inhibition
Outline: as §1

Kir2.1 = molecular target: T2, Kir2.1 (Homo sapiens, UniProt P63252); assay: Ion channel panel (IonWorks Barracuda): Kir2.1; assay type: cell-based; conditions: 100% = no change, <100% = inhibition
T2 construct: host or cells: HEK293 or CHO
T2 sequence (P63252 whole entry): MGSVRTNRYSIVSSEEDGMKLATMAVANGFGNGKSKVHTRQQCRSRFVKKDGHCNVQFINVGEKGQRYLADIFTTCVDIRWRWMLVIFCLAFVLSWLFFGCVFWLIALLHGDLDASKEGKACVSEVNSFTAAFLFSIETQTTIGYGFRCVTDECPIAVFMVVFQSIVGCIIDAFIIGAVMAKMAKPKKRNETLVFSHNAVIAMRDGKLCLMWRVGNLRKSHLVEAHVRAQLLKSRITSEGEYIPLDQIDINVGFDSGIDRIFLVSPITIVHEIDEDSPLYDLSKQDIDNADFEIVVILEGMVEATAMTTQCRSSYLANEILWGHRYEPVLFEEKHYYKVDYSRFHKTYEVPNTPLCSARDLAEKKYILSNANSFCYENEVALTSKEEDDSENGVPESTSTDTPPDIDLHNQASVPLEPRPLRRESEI
Outline: as §1

NR2A = molecular target: T3, NR2A (Homo sapiens, UniProt Q12879); assay: Ion channel panel (IonWorks Barracuda): NR2A; assay type: cell-based; conditions: 100% = no change, <100% = inhibition
T3 construct: host or cells: HEK293 or CHO
Outline: as §1

Kv1.1 = molecular target: T4, Kv1.1 (Homo sapiens, UniProt Q09470); assay: cell-based; assay type: cell-based; conditions: 100% = no change, <100% = inhibition
T4 construct: host or cells: HEK293 or CHO
Outline: as §1

Kv1.3 = molecular target: T5, Kv1.3 (Homo sapiens, UniProt P22001); assay: cell-based; assay type: cell-based; conditions: 100% = no change, <100% = inhibition
T5 construct: host or cells: HEK293 or CHO
T5 sequence (P22001 whole entry): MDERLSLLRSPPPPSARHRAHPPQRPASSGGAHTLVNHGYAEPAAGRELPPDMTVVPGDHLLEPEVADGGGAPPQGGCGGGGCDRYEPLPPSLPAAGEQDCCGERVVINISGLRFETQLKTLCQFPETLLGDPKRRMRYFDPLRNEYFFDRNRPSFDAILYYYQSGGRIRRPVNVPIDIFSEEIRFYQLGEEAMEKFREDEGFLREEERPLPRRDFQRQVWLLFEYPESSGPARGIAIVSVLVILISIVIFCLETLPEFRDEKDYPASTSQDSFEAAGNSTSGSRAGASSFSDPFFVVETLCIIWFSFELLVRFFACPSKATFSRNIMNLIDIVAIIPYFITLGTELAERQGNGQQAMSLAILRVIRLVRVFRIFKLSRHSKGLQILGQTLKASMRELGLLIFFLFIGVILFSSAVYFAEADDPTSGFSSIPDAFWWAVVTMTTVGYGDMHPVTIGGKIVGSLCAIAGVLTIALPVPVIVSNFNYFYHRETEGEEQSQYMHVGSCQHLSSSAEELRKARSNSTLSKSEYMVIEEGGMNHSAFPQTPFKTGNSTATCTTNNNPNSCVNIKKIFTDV
Outline: as §1

Kv1.2 = molecular target: T6, Kv1.2 (Homo sapiens, UniProt P16389); assay: cell-based; assay type: cell-based; conditions: 100% = no change, <100% = inhibition
T6 construct: host or cells: HEK293 or CHO
Outline: as §1

NR2B = molecular target: T7, NR2B (Homo sapiens, UniProt Q13224); assay: Ion channel panel (IonWorks Barracuda): NR2B; assay type: cell-based; conditions: 100% = no change, <100% = inhibition
T7 construct: host or cells: HEK293 or CHO
Outline: as §1

TRPA1 = molecular target: T8, TRPA1 (Homo sapiens, UniProt O75762); assay: Ion channel panel (IonWorks Barracuda): TRPA1; assay type: cell-based; conditions: 100% = no change, <100% = inhibition
T8 construct: host or cells: HEK293 or CHO
Outline: as §1

TRPV1 = molecular target: T9, TRPV1 (Homo sapiens, UniProt Q8NER1); assay: Ion channel panel (IonWorks Barracuda): TRPV1; assay type: cell-based; conditions: 100% = no change, <100% = inhibition
T9 construct: host or cells: HEK293 or CHO
Outline: as §1

α3β4 = molecular target: T10, α3β4 (Homo sapiens, UniProt P30926+P32297); assay: Ion channel panel (IonWorks Barracuda): α3β4; assay type: cell-based; conditions: 100% = no change, <100% = inhibition
T10 construct: host or cells: HEK293 or CHO
Outline: as §1

Kv2.1 = molecular target: T11, Kv2.1 (Homo sapiens, UniProt Q14721); assay: cell-based; conditions: 100% = no change, <100% = inhibition
T11 construct: host or cells: HEK293 or CHO
Outline: as §1

Cav2.1 = molecular target: T12, Cav2.1 (Homo sapiens, UniProt O00555); assay: cell-based; conditions: 100% = no change, <100% = inhibition
T12 construct: host or cells: HEK293 or CHO
Outline: as §1

Cav2.2 = molecular target: T13, Cav2.2 (Homo sapiens, UniProt Q00975); assay: cell-based; conditions: 100% = no change, <100% = inhibition
T13 construct: host or cells: HEK293 or CHO
Outline: as §1

5HT3a = molecular target: T14, 5HT3a (Homo sapiens, UniProt P46098); assay: Ion channel panel (IonWorks Barracuda): 5HT3a; assay type: cell-based
T14 construct: host or cells: HEK293 or CHO
T14 sequence (P46098 whole entry, looked up): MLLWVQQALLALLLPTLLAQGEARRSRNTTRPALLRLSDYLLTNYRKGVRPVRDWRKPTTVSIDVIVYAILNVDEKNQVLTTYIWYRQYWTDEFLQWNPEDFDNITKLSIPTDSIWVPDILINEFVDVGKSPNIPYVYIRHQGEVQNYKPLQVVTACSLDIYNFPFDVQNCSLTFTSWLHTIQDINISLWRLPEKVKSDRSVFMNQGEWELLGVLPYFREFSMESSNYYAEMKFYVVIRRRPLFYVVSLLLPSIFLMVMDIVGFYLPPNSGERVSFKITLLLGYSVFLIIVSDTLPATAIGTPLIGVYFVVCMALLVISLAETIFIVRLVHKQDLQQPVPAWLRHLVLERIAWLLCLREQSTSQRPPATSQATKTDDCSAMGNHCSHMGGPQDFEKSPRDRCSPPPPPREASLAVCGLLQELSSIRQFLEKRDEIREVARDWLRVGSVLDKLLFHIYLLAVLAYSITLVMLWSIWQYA
Outline: as §1

Nav1.7 = molecular target: T15, Nav1.7 (Homo sapiens, UniProt Q15858); assay: cell-based; assay type: cell-based; conditions: 100% = no change; for Activity of Nav1.7 with peptide, expressed as a percentage of the reference compound: peptide at 0.2 μM; for Activity of Nav1.7 with peptide (percentage of the reference compound): peptide at 20 μM
T15 construct: host or cells: HEK293 or CHO
T15 sequence (Q15858 whole entry): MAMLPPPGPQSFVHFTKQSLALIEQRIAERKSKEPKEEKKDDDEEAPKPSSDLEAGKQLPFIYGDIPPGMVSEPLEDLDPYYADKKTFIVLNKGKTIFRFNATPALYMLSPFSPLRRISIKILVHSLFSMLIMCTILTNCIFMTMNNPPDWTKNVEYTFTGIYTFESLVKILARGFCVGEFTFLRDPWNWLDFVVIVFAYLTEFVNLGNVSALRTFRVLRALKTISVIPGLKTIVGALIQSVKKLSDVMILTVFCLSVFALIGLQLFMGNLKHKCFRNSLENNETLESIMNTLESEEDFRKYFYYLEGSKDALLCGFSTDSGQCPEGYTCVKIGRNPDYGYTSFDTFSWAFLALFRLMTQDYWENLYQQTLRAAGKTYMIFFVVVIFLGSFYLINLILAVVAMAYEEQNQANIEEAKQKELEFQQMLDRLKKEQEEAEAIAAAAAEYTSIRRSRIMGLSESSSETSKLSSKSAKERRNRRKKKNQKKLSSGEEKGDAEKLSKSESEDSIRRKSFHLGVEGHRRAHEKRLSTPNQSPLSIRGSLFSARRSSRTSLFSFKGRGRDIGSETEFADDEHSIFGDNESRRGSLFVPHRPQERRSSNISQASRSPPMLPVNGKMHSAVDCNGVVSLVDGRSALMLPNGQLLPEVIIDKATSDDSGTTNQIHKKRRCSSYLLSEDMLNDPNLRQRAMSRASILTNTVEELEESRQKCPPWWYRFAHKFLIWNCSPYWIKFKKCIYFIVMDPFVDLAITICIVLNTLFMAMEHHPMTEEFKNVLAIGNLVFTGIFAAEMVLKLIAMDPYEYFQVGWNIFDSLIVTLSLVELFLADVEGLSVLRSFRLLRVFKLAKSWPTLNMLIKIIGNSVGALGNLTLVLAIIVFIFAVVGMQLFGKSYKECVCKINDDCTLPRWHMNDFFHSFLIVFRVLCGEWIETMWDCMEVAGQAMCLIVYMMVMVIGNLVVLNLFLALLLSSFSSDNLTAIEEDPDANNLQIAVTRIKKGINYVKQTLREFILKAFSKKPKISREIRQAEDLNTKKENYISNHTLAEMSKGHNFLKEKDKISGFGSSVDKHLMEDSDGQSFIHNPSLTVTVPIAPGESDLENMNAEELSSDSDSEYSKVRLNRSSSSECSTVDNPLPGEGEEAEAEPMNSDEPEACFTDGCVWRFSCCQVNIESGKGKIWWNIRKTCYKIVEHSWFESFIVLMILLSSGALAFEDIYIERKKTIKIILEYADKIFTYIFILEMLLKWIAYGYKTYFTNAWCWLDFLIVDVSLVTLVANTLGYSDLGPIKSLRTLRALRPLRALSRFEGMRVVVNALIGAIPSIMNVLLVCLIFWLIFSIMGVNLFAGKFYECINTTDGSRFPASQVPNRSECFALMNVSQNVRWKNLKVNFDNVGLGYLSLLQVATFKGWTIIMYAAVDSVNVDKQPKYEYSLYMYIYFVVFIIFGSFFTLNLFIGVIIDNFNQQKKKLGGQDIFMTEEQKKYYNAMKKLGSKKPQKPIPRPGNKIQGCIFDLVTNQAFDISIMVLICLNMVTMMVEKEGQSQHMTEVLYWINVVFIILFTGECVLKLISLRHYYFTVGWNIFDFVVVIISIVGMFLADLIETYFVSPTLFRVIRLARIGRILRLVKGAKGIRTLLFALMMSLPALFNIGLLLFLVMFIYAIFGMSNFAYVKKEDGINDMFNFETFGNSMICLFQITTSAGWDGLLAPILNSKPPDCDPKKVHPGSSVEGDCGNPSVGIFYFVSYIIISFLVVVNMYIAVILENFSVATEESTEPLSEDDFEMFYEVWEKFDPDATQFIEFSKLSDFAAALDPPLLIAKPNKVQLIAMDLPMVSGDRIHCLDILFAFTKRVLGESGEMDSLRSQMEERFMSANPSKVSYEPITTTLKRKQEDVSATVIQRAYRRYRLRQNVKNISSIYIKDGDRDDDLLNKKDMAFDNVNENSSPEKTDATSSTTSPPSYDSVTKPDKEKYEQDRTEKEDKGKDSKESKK

hERG = hERG (Homo sapiens, UniProt Q12809); assay: in vitro; conditions: 100% = no change, <100% = inhibition
Outline: as §1

Nav1.5 = Nav1.5 (Homo sapiens, UniProt Q14524); assay: in vitro; conditions: 100% = no change; for Activity of Nav1.5 with peptide, expressed as a percentage of the reference compound: peptide at 0.2 μM; for Activity of Nav1.5 with peptide (percentage of the reference compound): peptide at 20 μM
Chain of Nav1.5 (Q14524 whole entry): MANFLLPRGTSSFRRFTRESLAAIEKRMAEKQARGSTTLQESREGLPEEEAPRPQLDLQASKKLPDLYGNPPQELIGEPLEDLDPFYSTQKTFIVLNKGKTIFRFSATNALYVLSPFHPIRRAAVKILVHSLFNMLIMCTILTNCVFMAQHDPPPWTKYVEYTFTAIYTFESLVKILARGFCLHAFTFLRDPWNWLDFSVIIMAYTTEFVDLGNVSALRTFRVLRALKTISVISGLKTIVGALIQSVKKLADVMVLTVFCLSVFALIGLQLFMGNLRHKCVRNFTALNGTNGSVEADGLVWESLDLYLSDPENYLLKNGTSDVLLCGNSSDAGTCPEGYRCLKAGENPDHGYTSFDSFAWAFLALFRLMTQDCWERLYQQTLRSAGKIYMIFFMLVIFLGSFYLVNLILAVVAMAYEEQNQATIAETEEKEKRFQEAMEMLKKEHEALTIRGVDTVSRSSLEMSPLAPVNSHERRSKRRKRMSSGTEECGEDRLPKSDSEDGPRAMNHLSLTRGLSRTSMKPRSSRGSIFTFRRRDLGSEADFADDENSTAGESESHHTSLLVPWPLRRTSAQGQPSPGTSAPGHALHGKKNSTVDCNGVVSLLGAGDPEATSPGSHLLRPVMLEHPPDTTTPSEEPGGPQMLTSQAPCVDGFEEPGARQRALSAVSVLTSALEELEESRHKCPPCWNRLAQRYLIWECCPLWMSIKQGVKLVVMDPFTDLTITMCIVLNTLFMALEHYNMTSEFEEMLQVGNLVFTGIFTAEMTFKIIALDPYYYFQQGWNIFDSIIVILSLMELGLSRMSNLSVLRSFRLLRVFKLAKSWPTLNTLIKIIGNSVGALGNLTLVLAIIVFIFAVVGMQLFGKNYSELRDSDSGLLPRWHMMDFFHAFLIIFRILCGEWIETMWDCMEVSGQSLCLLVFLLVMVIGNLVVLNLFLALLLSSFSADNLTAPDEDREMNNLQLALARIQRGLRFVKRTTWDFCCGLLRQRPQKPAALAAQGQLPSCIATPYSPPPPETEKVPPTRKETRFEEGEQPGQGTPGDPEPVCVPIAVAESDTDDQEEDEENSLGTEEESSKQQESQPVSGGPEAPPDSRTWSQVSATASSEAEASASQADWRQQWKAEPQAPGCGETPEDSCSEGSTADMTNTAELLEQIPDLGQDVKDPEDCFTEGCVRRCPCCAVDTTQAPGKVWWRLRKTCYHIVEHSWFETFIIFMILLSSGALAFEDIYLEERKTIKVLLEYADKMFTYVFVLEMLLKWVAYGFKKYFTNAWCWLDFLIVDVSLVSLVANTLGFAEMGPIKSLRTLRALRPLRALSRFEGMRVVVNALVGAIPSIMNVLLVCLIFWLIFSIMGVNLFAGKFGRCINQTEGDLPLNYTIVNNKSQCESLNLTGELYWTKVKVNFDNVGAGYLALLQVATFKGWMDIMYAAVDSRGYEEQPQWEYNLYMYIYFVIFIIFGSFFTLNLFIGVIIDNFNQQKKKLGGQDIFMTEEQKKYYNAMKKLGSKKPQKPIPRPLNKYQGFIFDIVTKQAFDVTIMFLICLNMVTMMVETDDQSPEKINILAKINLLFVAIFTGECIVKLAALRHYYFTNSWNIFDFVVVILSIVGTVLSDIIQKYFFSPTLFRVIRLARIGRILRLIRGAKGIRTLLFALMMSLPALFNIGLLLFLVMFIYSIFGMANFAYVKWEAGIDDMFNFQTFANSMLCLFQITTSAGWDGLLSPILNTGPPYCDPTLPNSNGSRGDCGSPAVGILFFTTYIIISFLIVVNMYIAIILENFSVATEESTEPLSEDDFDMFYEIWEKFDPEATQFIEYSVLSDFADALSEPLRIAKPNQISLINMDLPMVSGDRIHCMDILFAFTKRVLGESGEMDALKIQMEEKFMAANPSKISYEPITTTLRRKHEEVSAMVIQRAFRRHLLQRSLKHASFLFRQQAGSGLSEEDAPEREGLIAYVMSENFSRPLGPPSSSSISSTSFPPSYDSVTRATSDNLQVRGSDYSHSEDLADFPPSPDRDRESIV
Outline: as §1

[1] = first of two Nav1.7 columns (probably TP1)
[2] = second of two Nav1.7 columns (probably TP2)
[3] = first of two Nav1.5 columns (probably TP1)
[4] = second of two Nav1.5 columns (probably TP2)

14 (GSDRDSCIDKSRCSKYGYYQECQDCCKKAGHNGGTCMFFKCKCA) [compound 14]
Activity of a4b2 with peptide, expressed as a percentage of the reference compound (α4β2; peptide at 0.2 μM): 106%
Activity of a4b2 with peptide (percentage of the reference compound) (α4β2; peptide at 20 μM): 81%
Activity of GABA with peptide, expressed as a percentage of the reference compound (GABA; peptide at 0.2 μM): 107%
Activity of GABA with peptide (percentage of the reference compound) (GABA; peptide at 20 μM): 120%
Activity of Kir2.1 with peptide, expressed as a percentage of the reference compound (Kir2.1; peptide at 0.2 μM): 95%
Activity of Kir2.1 with peptide (percentage of the reference compound) (Kir2.1; peptide at 20 μM): 79%
Activity of NR2A with peptide, expressed as a percentage of the reference compound (NR2A; peptide at 0.2 μM): 107%
Activity of NR2A with peptide (percentage of the reference compound) (NR2A; peptide at 20 μM): 95%
Activity of Kv1.1 with peptide, expressed as a percentage of the reference compound (Kv1.1; peptide at 0.2 μM): 79%
Activity of Kv1.1 with peptide (percentage of the reference compound) (Kv1.1; peptide at 20 μM): 99%
Activity of Kv1.3 with peptide, expressed as a percentage of the reference compound (Kv1.3; peptide at 0.2 μM): 87%
Activity of Kv1.3 with peptide (percentage of the reference compound) (Kv1.3; peptide at 20 μM): 82%
Activity of Kv1.2 with peptide, expressed as a percentage of the reference compound (Kv1.2; peptide at 0.2 μM): 73%
Activity of Kv1.2 with peptide (percentage of the reference compound) (Kv1.2; peptide at 20 μM): 34%
Activity of NR2B with peptide, expressed as a percentage of the reference compound (NR2B; peptide at 0.2 μM): 123%
Activity of NR2B with peptide (percentage of the reference compound) (NR2B; peptide at 20 μM): 72%
Activity of TRPA1 with peptide, expressed as a percentage of the reference compound (TRPA1; peptide at 0.2 μM): 106%
Activity of TRPA1 with peptide (percentage of the reference compound) (TRPA1; peptide at 20 μM): 66%
Activity of TRPV1 with peptide, expressed as a percentage of the reference compound (TRPV1; peptide at 0.2 μM): 133%
Activity of TRPV1 with peptide (percentage of the reference compound) (TRPV1; peptide at 20 μM): 92%
Activity of a3b4 with peptide, expressed as a percentage of the reference compound (α3β4; peptide at 0.2 μM): 99%
Activity of a3b4 with peptide (percentage of the reference compound) (α3β4; peptide at 20 μM): 93%
Activity of Kv2.1 with peptide, expressed as a percentage of the reference compound (Kv2.1; peptide at 0.2 μM): 109%
Activity of Kv2.1 with peptide (percentage of the reference compound) (Kv2.1; peptide at 20 μM): 93%
Activity of Cav2.1 with peptide, expressed as a percentage of the reference compound (Cav2.1; peptide at 0.2 μM): 118%
Activity of Cav2.1 with peptide (percentage of the reference compound) (Cav2.1; peptide at 20 μM): 111%
Activity of Cav2.2 with peptide, expressed as a percentage of the reference compound (Cav2.2; peptide at 0.2 μM): 129%
Activity of Cav2.2 with peptide (percentage of the reference compound) (Cav2.2; peptide at 20 μM): 95%
Activity of 5HT3a with peptide (percentage of the reference compound) (5HT3a): 78%
Activity of 5HT3a with peptide, expressed as a percentage of the reference compound (5HT3a): 96%
Activity of Nav1.7 with peptide, expressed as a percentage of the reference compound (Nav1.7; [1]): 83%
Activity of Nav1.7 with peptide, expressed as a percentage of the reference compound (Nav1.7; [2]): 89%
Activity of Nav1.7 with peptide (percentage of the reference compound) (Nav1.7; [1]): 72%
Activity of Nav1.7 with peptide (percentage of the reference compound) (Nav1.7; [2]): 65%
Activity of hERG with peptide, expressed as a percentage of the reference compound (hERG; peptide at 0.2 μM): 82%
Activity of hERG with peptide (percentage of the reference compound) (hERG; peptide at 20 μM): 1%
Activity of Nav1.5 with peptide, expressed as a percentage of the reference compound (Nav1.5; [3]): 85%
Activity of Nav1.5 with peptide, expressed as a percentage of the reference compound (Nav1.5; [4]): 82%
Activity of Nav1.5 with peptide (percentage of the reference compound) (Nav1.5; [3]): 94%
Activity of Nav1.5 with peptide (percentage of the reference compound) (Nav1.5; [4]): 97%
